T1: annexin A4 (ANXA4) (Mus musculus, UniProt P97429)
T1 construct: purchased myBiosource
T1 sequence (P97429 1-319): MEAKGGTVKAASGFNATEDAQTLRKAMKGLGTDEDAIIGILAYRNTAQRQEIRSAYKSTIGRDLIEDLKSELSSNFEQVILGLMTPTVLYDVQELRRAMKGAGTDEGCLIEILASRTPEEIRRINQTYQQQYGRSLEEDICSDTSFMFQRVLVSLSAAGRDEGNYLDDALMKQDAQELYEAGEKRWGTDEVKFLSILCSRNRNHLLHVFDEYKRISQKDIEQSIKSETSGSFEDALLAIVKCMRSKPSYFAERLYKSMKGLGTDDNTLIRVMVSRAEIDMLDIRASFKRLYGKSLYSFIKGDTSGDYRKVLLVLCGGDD

B1: aptamer 3: 2'Fluoro-RNA aptamer, SEQ ID NO: 3, specific for tumor infiltrating myeloid cells; ligand ANXA4 (nucleic acid)
chain: GGAGGACGAUGCGGAUUACCAACUUGAACGCCGAGAGUGUGGUCACGUGUUCUGCAGACGACUCGCUGAGGAUCCGAGA
modifications: 2'-fluoro modified RNA, modified positions not given here, Cy3-labelled for binding assays
notes: ligand ANXA4
B2: aptamer 6: 2'Fluoro-RNA aptamer, SEQ ID NO: 6, specific for tumor infiltrating myeloid cells (nucleic acid)
chain: GGAGGACGAUGCGGCAGGUGCGGGAUCUAAUGCGUAGACAGCCAUAUACUGACACAGACGACUCGCUGAGGAUCCGAGA
modifications: 2'-fluoro modified RNA, modified positions not given here, Cy3-labelled for binding assays
B3: aptamer 11: 2'Fluoro-RNA aptamer, SEQ ID NO: 11, specific for tumor infiltrating myeloid cells; ligand vimentin (nucleic acid)
chain: GGAGGACGAUGCGGGGAAGCAACACUUAGUCGCGAUUGAUACGUGCGCAGUCAUCAGACGACUCGCUGAGGAUCCGAGA
modifications: 2'-fluoro modified RNA, modified positions not given here, Cy3-labelled for binding assays
notes: ligand vimentin
B4: aptamer 14: 2'Fluoro-RNA aptamer, SEQ ID NO: 14, specific for tumor infiltrating myeloid cells (nucleic acid)
chain: GGAGGACGAUGCGGUGUACACUGAUUGCCUUUGUGUUAUGAGCGACAGAUCUGCCAGACGACUCGCUGAGGAUCCGAGA
modifications: 2'-fluoro modified RNA, modified positions not given here, Cy3-labelled for binding assays

Tests used:
4T1 mammary carcinoma = assay: Therapeutic efficacy and toxicity in 4T1 bearing BALB/c mice; type: in vivo, mouse
Method: FIGS. 7A-7C. TIMC-specific aptamers increase doxorubicin therapeutic index. […] Treatment was repeated 2 and 6 days later. […] Weight loss as measure of toxicity is reported. […] Survival was monitored.
Aptamer-Doxorubicin treatment: Aptamer-doxorubicin was prepared by making DNA template with the appropriate aptamer followed by a GC-rich primer sequence downstream (GC rich Sul3′, FIG. 11. From this template, RNA was transcribed and purified as described above. Doxorubicin (Sigma) was mixed with the RNA sequence as needed. Doxil (ALZA corporation) was purchased through the University of Miami pharmacy.
BALB/c mice were injected IV with the 4T1 luciferase thy1.1 tumor cell line. Treatment was started when tumors reached 5 mm of diameter and repeated 2 and 6 days later. Tumor growth and mice weight was reported. Mice were evaluated at least 3 times a week and humanely euthanized when tumor size index reached 150 mm^2 or if they lose >20% of initial weight due to chemotherapy or tumor growth in compliance with the IACUC policy and animal protocol. Data are expressed as tumor size index defined as the product of the main diameter with the perpendicular one.
Next, the therapeutic efficacies of doxorubicin delivered by TIMC-specific aptamers was compared by PEGylated liposomes (Doxil, the first clinically available nanoparticle that became the gold standard for doxorubicin treatment (34, 35)), and as unconjugated molecules. Briefly, 4T1 bearing BALB/c mice were treated with unconjugated DOX at dose high, or low dose, or with low doses of DOX conjugated to the TIMC-specific aptamer, or with Doxil (low dose—0.35 mg/kg). Treatment was repeated 2 and 6 days later. As additional controls, mice were treated with unconjugated aptamers, irrelevant aptamers conjugated with doxorubicin, or left untreated.

[1] = tested on: TIMC from 4T1, CT26, RENCA, B16LU8, MCA203, E0771 tumors; assay: Staining of single cell suspensions from tumor, bone marrow, spleen and lungs in multiple mouse tumor models; type: cell-based; conditions: BALB/c (4T1, CT26, RENCA) and C57Bl/6 (B16LU8, MCA203, E0771) tumor models
Description: (§1) Flow cytometry: Aptamers were labeled with Cy3 using the Silencer siRNA Labeling Kit—Cy3 (Ambion) and 37 pmoles were used to label 5×10^6 cells unless otherwise specified. In some experiments biotinylated aptamers were labelled with streptavidin conjugated with Alexa Fluor 647 or Alexa Fluor 750 and purified from unbound aptamer by Ultra-4 centrifugal filters, […] (Millipore).
(§2) Dead cells were excluded by the analysis by using 4′,6′-diamidino-2-phenylindole (DAPI; Sigma) or Live/Dead dye (Invitrogen). Samples were read on a LSR2 equipped with 405 nm, 488 nm, 532 nm, and 635 nm lasers (BD Bioscience). Data were analyzed using FCS6 express software (Denovo-Software).
The binding properties of monoclonal RNA aptamers 3, 6, 11 and 14 were evaluated in other tumor models. Aptamers 3, 6, 11, or 14 single cell suspensions were stained from tumor, bone marrow, spleen, and lungs of BALB/c mice bearing the 4T1 mammary carcinoma, the CT26 colon carcinoma, or the RENCA renal carcinoma. Similar analysis was performed on single cell suspensions from C57Bl/6 mice bearing B16LU8 melanoma, MCA203 fibrosarcoma or E0771 mammary carcinoma.

[2] = tested on: 4T1 tumors and tissues arrays from naïve mice; assay: Immunofluorescence microscopy on 4T1 tumors and tissues arrays from naïve mice; parameters: species or system mouse
Method: Immunofluorescence microscopy and Image cytometry: Fresh frozen tissue and tissues microarrays (AMSBIO) were fixed in 10% neutral-buffered formalin (BDH) for 15′ at RT, incubated with dextran sulfate sodium/PBS (1:2 m/V—Pharmacia biotech) for 30′ and washed with PBS. Tissues were then stained with Cy3-labelled aptamer (10 ug/ml) in PBS for 30′, masked with 2% BSA, and counterstained with antibodies and/or DAPI.
Specificity was further evaluated by immunofluorescence microscopy using 4T1 tumors and tissues arrays from naïve mice.

[3] = tested on: tumor infiltrating myeloid cells (4T1 tumor); assay: Flow cytometry of Cy3-labelled monoclonal aptamers on single cell suspensions from tumor and spleen of 4T1 bearing mice; type: cell-based, mouse; conditions: tumor and spleen of 4T1 challenged mice; splenic MDSCs and CD11b- cells p>0.05
Description: FIGS. 2A-C. […] FIG. 2A) Single cell suspensions from spleens and tumors of mice pooled from 3 mice bearing the 4T1 tumor (0.5 cm in diameter) were labelled with antibodies against CD11b, Ly6C, Ly6G and the 15 Cy3-labelled monoclonal aptamers identified by APTANI. Data derived from n=5 biological replica and derived from n=2 independent experiments. Aptamers 3 (SEQ ID NO: 3), 6 (SEQ ID NO: 6), 11 (SEQ ID NO: 11), and 14 (SEQ ID NO: 14) were chosen for further analysis and are in bold. *=P<0.001 by one-way ANOVA and post-hoc Holm-Sidak comparisons versus irrelevant aptamer. […] FIG. 2B) Secondary structure of aptamers 3 (SEQ ID NO: 3), 6 (SEQ ID NO: 6), 11 (SEQ ID NO: 11), and 14 (SEQ ID NO: 14). Binding motifs identified by APTANI are underlined in black. Fluorinated nucleotides are highlighted in gray. FIG. 2C) An equimolar mixture of the aptamers increases the specificity for tumor infiltrating myeloid cells. Pooled single cell suspension of tumor or spleen from 4T1 bearing mice were labeled with aptamers 3 (SEQ ID NO: 3), 6 (SEQ ID NO: 6), 11 (SEQ ID NO: 11), and 14 (SEQ ID NO: 14), or equimolar mixtures of each aptamer and analyzed by FACS. Data derived from n=3 independent experiments.
as §1, §2
These 15 aptamers were tested by flow cytometry against single cell suspensions from tumor and spleen of mice challenged with the 4T1 tumor (FIG. 2A).
Next, whether an equimolar mixture of aptamers 3, 6, 11 and 14 was more efficient in recognizing TIMC as compared to each individual aptamer was evaluated.

[4] = Aptamer-based immunoprecipitation and mass spectrometry (target identification); conditions: immunoprecipitation, mass spectrometry
Method: (§3) FIG. 4A-4E. Characteristics of aptamers that preferentially recognize tumor infiltrating myeloid cells. FIG. 4A) Affinity of the aptamers for IL4 treated MSC2 cells was determined by FACS. Putative targets (ANXA4 and VIM) were identified via aptamer-based immunoprecipitation, SDS page, and mass spec analysis. Kds against ligands was determined by FACS against recombinant protein conjugated to epoxy beads. FIG. 4B) Epoxy beads conjugated with ANXA4 or irrelevant protein were stained with Cy3-labelled aptamer 3 or irrelevant aptamer and analyzed by FACS. FIG. 4C) Epoxy beads conjugated with vimentin or irrelevant protein were stained with Cy3-labelled aptamer 11 or irrelevant aptamer and analyzed by FACS. FIG. 4D) ANXA4 competitive assay. 5×10^5 IL4 treated MSC2 were stained with aptamer 3 in the presence or in the absence of recombinant ANXA4. FIG. 4E) MCS2 cells were transfected via the 4PD nanoparticle with shRNA against vimentin or with a scrambled shRNA. 4 days later cells were stained with Cy3-labelled aptamer 11 and DAPI. Pa=One-way ANOVA p value. Data derived from n=2 independent experiments.
The specificity of aptamer 3 for ANXA4 and aptamer 11 for vimentin were tested by competitive experiments (FIG. 4D) and with validated shRNA (29) (FIG. 4E), respectively.

annexin A4 (ANXA4) = biological target: T1, annexin A4 (ANXA4); assay: FACS of epoxy beads conjugated with recombinant ANXA4; type: binding; conditions: beads loaded with relevant or irrelevant recombinant proteins
Method: as §3
(§4) FIG. 8A and FIG. 8B. Affinity of aptamers #3 (SEQ ID NO: 3), #6 (SEQ ID NO: 6), #11 (SEQ ID NO: 11) and #14 (SEQ ID NO: 14) for IL4 treated MSC2 or their putative ligand. […] Binding was evaluated by FACS. […] Binding was evaluated by FACS. […]

vimentin (VIM) = biological target: T2, vimentin (VIM) (Mus musculus, UniProt P20152); assay: FACS of epoxy beads conjugated with recombinant vimentin; type: binding; conditions: beads loaded with relevant or irrelevant recombinant proteins
T2 construct: purchased myBiosource
Method: as §3, §4

T2 sequence (P20152 whole entry): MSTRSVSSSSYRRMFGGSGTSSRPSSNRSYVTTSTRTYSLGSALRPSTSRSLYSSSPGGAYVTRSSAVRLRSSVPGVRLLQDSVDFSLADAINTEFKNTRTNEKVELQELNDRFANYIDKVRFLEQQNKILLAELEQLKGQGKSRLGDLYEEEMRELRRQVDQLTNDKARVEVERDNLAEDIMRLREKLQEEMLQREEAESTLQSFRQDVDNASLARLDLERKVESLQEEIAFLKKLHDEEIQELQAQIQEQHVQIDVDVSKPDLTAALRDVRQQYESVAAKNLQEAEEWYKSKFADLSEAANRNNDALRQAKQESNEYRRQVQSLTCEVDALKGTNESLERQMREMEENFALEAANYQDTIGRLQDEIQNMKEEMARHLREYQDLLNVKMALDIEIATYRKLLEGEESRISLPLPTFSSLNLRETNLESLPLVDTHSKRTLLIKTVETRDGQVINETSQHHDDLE

| Molecule | toxicity (body weight loss) (4T1 mammary carcinoma; free DOX high dose 3.5 mg/kg, DOX-aptamer 0.35 mg/kg) | treatment related mortality (4T1 mammary carcinoma; high doses of free doxorubicin) [%] | anti-tumor effect (4T1 mammary carcinoma; i.v., repeated 2 and 6 days later, free DOX high dose 3.5 mg/kg, Doxil and DOX-aptamer low dose 0.35 mg/kg) | recognition of TIMC [1] | staining of tissues from naïve mice [2] | specificity for tumor infiltrating vs splenic myeloid cells [3] | putative target [4] | specificity for annexin protein (annexin A4 (ANXA4)) | specificity for vimentin protein (vimentin (VIM)) |
| --- | --- | --- | --- | --- | --- | --- | --- | --- | --- |
| COc1cccc2c1C(=O)c1c(O)c3c(c(O)c1C2=O)C[C@@](O)(C(=O)CO)C[C@@H]3O[C@H]1C[C@H](N)[C@H](O)[C@H](C)O1 [free doxorubicin, doxorubicin] | significant body weight loss | 15 | No significant anti-tumor effect |  |  |  |  |  |  |
| B1 |  |  |  | able to recognize TIMC | recognized hepatocytes at low intensity | specific for tumor infiltrating myeloid cells | annexin A4 (ANXA4 isoform X1 P97495) | confirmed the specificity |  |
| B2 |  |  |  | able to recognize TIMC | showed binding for epithelial cells in the uterus and low binding for pancreatic acinar tissue | specific for tumor infiltrating myeloid cells | No targets have been identified |  |  |
| B3 |  |  |  | able to recognize TIMC |  | specific for tumor infiltrating myeloid cells | vimentin (VIM P20152) |  | confirmed the specificity |
| B4 |  |  |  | able to recognize TIMC | recognized intestinal villi and seems to show a nuclear staining of cerebellum, pancreatic acinar tissue, stomach and spleen | specific for tumor infiltrating myeloid cells | No targets have been identified |  |  |
